Experimental data published in publication PMC5841405 (Nature Communications, 2018).

Key:
[1] = biological target: the molecule itself; test: SEC-MALS; Superose 6 10/300 GL, 20 mM Tris pH 7.5, 100 mM NaCl, 1 mM DTT
[2] = biological target: the molecule itself; test: ITC; titration of the protein into buffer (dilution); dimer to monomers; 20 mM HEPES pH 7.5, 100 mM NaCl, 0.25 mM TCEP

Protein	stoichiometry N [1]	Kd [2]
Spindly_(1–142) (domain or fragment, human, UniProt Q96EA4-1 1-142, looked up, human Spindly, UniProt Q96EA4-1, residues 1-142 (includes the CC1-Box); Cloned in pCold1; source: E. coli BL21 (DE3), purified (Ni-NTA, TEV cleavage, Superdex 75)) MEADIITNLRCRLKEAEEERLKAAQYGLQLVESQNELQNQLDKCRNEMMTMTESYEQEKYTLQREVELKSRMLESLSCECEAIKQQQKMHLEKLEEQLSRSHGQEVNELKTKIEKLKVELDEARLSEKQLKHQVDHQKELLS	2	–
BICD2_(1–98) (domain or fragment, human, UniProt Q8TD16-1 1-98, looked up, human BICD2, UniProt Q8TD16-1, residues 1-98 (includes the CC1-Box); Purified 'as described above' (pMAL-c2x); source: E. coli BL21 (DE3), purified (amylose column, TEV cleavage, gel filtration)) MSAPSEEEEYARLVMEAQPEWLRAEVKRLSHELAETTREKIQAAEYGLAVLEEKHQLKLQFEELEVDYEAIRSEMEQLKEAFGQAHTNHKKVAADGES	2	–
Hook1_(11–238) (domain or fragment, human, UniProt Q9UJC3-1 11-238, looked up, human Hook1, UniProt Q9UJC3-1, residues 11-238 (Hook domain and CC1 region); In equilibrium between dimers and monomers; source: E. coli BL21 (DE3), purified (amylose column, TEV cleavage, gel filtration)) KLPLCDSLMIWLQTFNTASPCQDVKQLTSGVAMAQVLHQIDAAWFNESWLSRIKEDVGDNWRIKASNVKKVLQGIMSYYHEFLGQQISEALIPDLNQITECSDPVELGRLLQLILGCAINCEKKQEHIQNIMTLEESVQHVVMTAIQELMSKEILSSPPNDAVGELEQQLKRALEELQEALAEKEELRQRCEELDMQVTTLQDEKNSLVSENEMMNEKLDQLDGSFDD	–	2.1 µM
Hook1_(11–443) (domain or fragment, human, UniProt Q9UJC3-1 11-443, looked up, human Hook1, UniProt Q9UJC3-1, residues 11-443 (extends to the end of CC2); Dimeric by SEC-MALS; source: E. coli BL21 (DE3), purified (amylose column, TEV cleavage, gel filtration)) KLPLCDSLMIWLQTFNTASPCQDVKQLTSGVAMAQVLHQIDAAWFNESWLSRIKEDVGDNWRIKASNVKKVLQGIMSYYHEFLGQQISEALIPDLNQITECSDPVELGRLLQLILGCAINCEKKQEHIQNIMTLEESVQHVVMTAIQELMSKEILSSPPNDAVGELEQQLKRALEELQEALAEKEELRQRCEELDMQVTTLQDEKNSLVSENEMMNEKLDQLDGSFDDPNTVVAKKYFHAQLQLEQLQEENFRLEAAKDDYRVHCEELEKQLIEFQHRNDELTSLAEETRALKDEIDVLRATSDKANKLESTVEIYRQKLQDLNDLRKQVKTLQETNMMYMHNTVSLEEELKKANAARTQLETYKRQVQDLHVKLSSESKRADTLAFEMKRLEEKHEALLKEKERLIEQRDTLKETNEELRCSQVQQDHLNQT	2	–
